From the Human Domainome abundance scans (Beltran et al. 2025)
± gives the uncertainty stated by the source.

B1: POU domain, class 3, transcription factor 2, residues 356 to 411; numbered along this chain, P20265 (parent)
chain: KKRTSIEVSVKGALESHFLKCPKPSAQEITSLADSLQLEKEVVRVWFCNRRQKEKR

Variants of: B1
Assay: abundance fitness (aPCA) (normalised: wild type 0, dead -1); higher = more abundant; growth selection in yeast, the domain comes from the species named
Conditions: Homo sapiens

For KKRTSIEVSVKGALESHFLKCPKPSEQEITSLADSLQLEKEVVRVWFCNRRQKEKR, which abundance fitness is on record?
The abundance fitness was -0.064 ± 0.093.

Which abundance fitness does the source give for KKRTSIEVSVKGALESHFLKCPKPSDQEITSLADSLQLEKEVVRVWFCNRRQKEKR here?
Its abundance fitness is 0.151 ± 0.13.

For KKRTSIEVSVKGALESHFLKCPKPSCQEITSLADSLQLEKEVVRVWFCNRRQKEKR, which abundance fitness is on record?
The abundance fitness was -0.244 ± 0.13.

Which abundance fitness does the source give for KKRTSIEVSVKGALESHFLKCPKPSIQEITSLADSLQLEKEVVRVWFCNRRQKEKR here?
Its abundance fitness is -0.05 ± 0.14.

For KKRTSIEVSVKGALESHFLKCPKPSGQEITSLADSLQLEKEVVRVWFCNRRQKEKR, which abundance fitness is on record?
Its abundance fitness is -0.141 ± 0.078.

With KKRTSIEVSVKGALESHFLKCPKPSFQEITSLADSLQLEKEVVRVWFCNRRQKEKR as the variant, how does the abundance fitness read?
The abundance fitness was -0.312 ± 0.18.

Which abundance fitness does the source give for KKRTSIEVSVKGALESHFLKCPKPSHQEITSLADSLQLEKEVVRVWFCNRRQKEKR here?
The abundance fitness was -0.059 ± 0.16.

With KKRTSIEVSVKGALESHFLYCPKPSAQEITSLADSLQLEKEVVRVWFCNRRQKEKR as the variant, how does the abundance fitness read?
Its abundance fitness is -0.379 ± 0.17.

For KKRTSIEVSVKGALESHFLVCPKPSAQEITSLADSLQLEKEVVRVWFCNRRQKEKR, which abundance fitness is on record?
Its abundance fitness is -0.323 ± 0.096.

Which abundance fitness does the source give for KKRTSIEVSVKGALESHFLTCPKPSAQEITSLADSLQLEKEVVRVWFCNRRQKEKR here?
The abundance fitness was -0.16 ± 0.11.

Which abundance fitness does the source give for KKRTSIEVSVKGALESHFLRCPKPSAQEITSLADSLQLEKEVVRVWFCNRRQKEKR here?
The abundance fitness was -0.223 ± 0.076.

With KKRTSIEVSVKGALESHFLSCPKPSAQEITSLADSLQLEKEVVRVWFCNRRQKEKR as the variant, how does the abundance fitness read?
Its abundance fitness is -0.248 ± 0.095.

With KKRTSIEVSVKGALESHFLWCPKPSAQEITSLADSLQLEKEVVRVWFCNRRQKEKR as the variant, how does the abundance fitness read?
The abundance fitness was -0.605 ± 0.12.

With KKRTSIEVSVKGALESHFLQCPKPSAQEITSLADSLQLEKEVVRVWFCNRRQKEKR as the variant, how does the abundance fitness read?
The abundance fitness was -0.443 ± 0.16.

For KKRTSIEVSVKGALESHFLKCPKPAAQEITSLADSLQLEKEVVRVWFCNRRQKEKR, which abundance fitness is on record?
Its abundance fitness is -0.322 ± 0.1.

With KKRTSIEVSVKGALESHFLKCPKPNAQEITSLADSLQLEKEVVRVWFCNRRQKEKR as the variant, how does the abundance fitness read?
The abundance fitness was -0.167 ± 0.21.

With KKRTSIEVSVKGALESHFLKCPKPIAQEITSLADSLQLEKEVVRVWFCNRRQKEKR as the variant, how does the abundance fitness read?
The abundance fitness was -0.793 ± 0.23.

Which abundance fitness does the source give for KKRTSIEVSVKGALESHFLKCPKPFAQEITSLADSLQLEKEVVRVWFCNRRQKEKR here?
The abundance fitness was -0.902 ± 0.3.

With KKRTSIEVSVKGALESHFLKCPKPRAQEITSLADSLQLEKEVVRVWFCNRRQKEKR as the variant, how does the abundance fitness read?
The abundance fitness was -0.47 ± 0.1.

With KKRTSIEVSVKGALESHFLKCPKPLAQEITSLADSLQLEKEVVRVWFCNRRQKEKR as the variant, how does the abundance fitness read?
The abundance fitness was -0.423 ± 0.093.

For KKRTSIEVSVKGALESHFLKCPKPYAQEITSLADSLQLEKEVVRVWFCNRRQKEKR, which abundance fitness is on record?
The abundance fitness was -0.798 ± 0.27.

Which abundance fitness does the source give for KKRTSIEVSVKGALESHFLKCPKPTAQEITSLADSLQLEKEVVRVWFCNRRQKEKR here?
Its abundance fitness is 0.038 ± 0.12.

Which abundance fitness does the source give for KKRTSIEVSVKGALESHFLKCPKPPAQEITSLADSLQLEKEVVRVWFCNRRQKEKR here?
Its abundance fitness is -0.579 ± 0.14.

For KKRTSIEVSVKGALESHFLKCPKPKAQEITSLADSLQLEKEVVRVWFCNRRQKEKR, which abundance fitness is on record?
The abundance fitness was -0.318 ± 0.14.

With KKRTSIEVSVKGALESHFLKCPKPGAQEITSLADSLQLEKEVVRVWFCNRRQKEKR as the variant, how does the abundance fitness read?
Its abundance fitness is -0.194 ± 0.087.

Which abundance fitness does the source give for KKRTSIEVSVKGALESHFLKCPKPVAQEITSLADSLQLEKEVVRVWFCNRRQKEKR here?
Its abundance fitness is -0.725 ± 0.094.

For KKRTSIEVSVKGALESHFLKCPKPHAQEITSLADSLQLEKEVVRVWFCNRRQKEKR, which abundance fitness is on record?
The abundance fitness was -0.467 ± 0.17.

With KKRTSIEVSVKGALESHFLKCPKPMAQEITSLADSLQLEKEVVRVWFCNRRQKEKR as the variant, how does the abundance fitness read?
The abundance fitness was -0.446 ± 0.19.

With KKRTSIEVSVKGALESHFLKCPKPCAQEITSLADSLQLEKEVVRVWFCNRRQKEKR as the variant, how does the abundance fitness read?
Its abundance fitness is -0.231 ± 0.14.

With KKRTSIEVSVKGALESHFLKCPWPSAQEITSLADSLQLEKEVVRVWFCNRRQKEKR as the variant, how does the abundance fitness read?
The abundance fitness was -0.336 ± 0.13.

With KKRTSIEVSVKGALESHFLKCPQPSAQEITSLADSLQLEKEVVRVWFCNRRQKEKR as the variant, how does the abundance fitness read?
The abundance fitness was -0.002 ± 0.12.

Which abundance fitness does the source give for KKRTSIEVSVKGALESHFLKCPCPSAQEITSLADSLQLEKEVVRVWFCNRRQKEKR here?
Its abundance fitness is 0.023 ± 0.13.

Which abundance fitness does the source give for KKRTSIEVSVKGALESHFLKCPYPSAQEITSLADSLQLEKEVVRVWFCNRRQKEKR here?
Its abundance fitness is -0.312 ± 0.16.

Which abundance fitness does the source give for KKRTSIEVSVKGALESHFLKCPGPSAQEITSLADSLQLEKEVVRVWFCNRRQKEKR here?
The abundance fitness was -0.426 ± 0.095.

For KKRTSIEVSVKGALESHFLKCPTPSAQEITSLADSLQLEKEVVRVWFCNRRQKEKR, which abundance fitness is on record?
Its abundance fitness is 0.086 ± 0.1.

For KKRTSIEVSVKGALESHFLKCPNPSAQEITSLADSLQLEKEVVRVWFCNRRQKEKR, which abundance fitness is on record?
The abundance fitness was 0.105 ± 0.14.

For KKRTSIEVSVKGALESHFLKCPPPSAQEITSLADSLQLEKEVVRVWFCNRRQKEKR, which abundance fitness is on record?
The abundance fitness was -0.863 ± 0.17.

With KKRTSIEVSVKGALESHFLKCPDPSAQEITSLADSLQLEKEVVRVWFCNRRQKEKR as the variant, how does the abundance fitness read?
Its abundance fitness is 0.093 ± 0.17.

For KKRTSIEVSVKGALESHFLKCPLPSAQEITSLADSLQLEKEVVRVWFCNRRQKEKR, which abundance fitness is on record?
Its abundance fitness is -0.203 ± 0.069.

For KKRTSIEVSVKGALESHFLKCPSPSAQEITSLADSLQLEKEVVRVWFCNRRQKEKR, which abundance fitness is on record?
Its abundance fitness is 0.024 ± 0.083.

Which abundance fitness does the source give for KKRTSIEVSVKGALESHFLKCPIPSAQEITSLADSLQLEKEVVRVWFCNRRQKEKR here?
The abundance fitness was -0.117 ± 0.16.

For KKRTSIEVSVKGALESHFLKCPMPSAQEITSLADSLQLEKEVVRVWFCNRRQKEKR, which abundance fitness is on record?
Its abundance fitness is -0.077 ± 0.11.

For KKRTSIEVSVKGALESHFLKCPFPSAQEITSLADSLQLEKEVVRVWFCNRRQKEKR, which abundance fitness is on record?
Its abundance fitness is -0.163 ± 0.12.

For KKRTSIEVSVKGALESHFLKCPAPSAQEITSLADSLQLEKEVVRVWFCNRRQKEKR, which abundance fitness is on record?
The abundance fitness was -0.135 ± 0.094.

For KKRTSIEVSVKGALESHFLKCPVPSAQEITSLADSLQLEKEVVRVWFCNRRQKEKR, which abundance fitness is on record?
The abundance fitness was -0.045 ± 0.092.

For KKRTSIEVSVKGALESHFLKCPEPSAQEITSLADSLQLEKEVVRVWFCNRRQKEKR, which abundance fitness is on record?
Its abundance fitness is 0.072 ± 0.099.

Which abundance fitness does the source give for KKRTSIEVSVKGALESHFLKCPRPSAQEITSLADSLQLEKEVVRVWFCNRRQKEKR here?
Its abundance fitness is -0.041 ± 0.078.
